Legend:
A366 peptide = experiment: screening of kinases for S366 of STING (33P-ATP); type: biochemical; conditions: kinase mixed with peptide and 33P-ATP
Procedure: (§1) The activity of 217 protein kinase targets were evaluated against 2 peptides (A366 and S366) as substrate. Protein kinases were mixed with each peptide and ^33P-ATP and then activity (CPM) was measured. The below kinases were identified as phosphorylating S366 in STING. Identification of kinases which target this serine opens up novel avenues for drug discovery. Drugs that target this association may inhibit STING activity and be used for therapeutic purposes to inhibit STING activity. STING over activity may lead to inflammatory diseases which can exacerbate cancer.

S366 peptide = experiment: screening of kinases for S366 of STING (33P-ATP); type: biochemical; conditions: for Fold inducton: S366 peptide vs A366 peptide; for Activity, S366 peptide: kinase mixed with peptide and 33P-ATP
Procedure: as §1

Row | Activity (cpm), kinase mixed with peptide and 33P-ATP (A366 peptide of STING) | Activity (cpm), kinase mixed with peptide and 33P-ATP (S366 peptide of STING) | Molecule | Activity, A366 peptide (A366 peptide) | Fold inducton (S366 peptide) | Activity, S366 peptide (S366 peptide)
1 | 6810 cpm | 12800 cpm | PKC (isoform illegible) (enzyme) |  |  | 
2 |  |  | PIM2: protein kinase | 1414 cpm | 2.63 | 3715 cpm
3 | 1410 cpm | 3720 cpm | PIM2 (from UniProt Q9P1W9) (enzyme) |  |  | 
4 |  |  | NEK7: protein kinase | 3619 cpm | 5.28 | 19112 cpm
5 | 5510 cpm | 35600 cpm | NEK6 (from UniProt Q9HC98) (enzyme) |  |  | 
6 | 15600 cpm | 26200 cpm | CK1 (isoform illegible) (enzyme) |  |  | 
7 |  |  | NEK6: protein kinase | 5512 cpm | 6.45 | 35556 cpm
8 | 3620 cpm | 19100 cpm | NEK7 (from UniProt Q8TDX7) (enzyme) |  |  | 
9 | 2430 cpm | 6890 cpm | IKKα (enzyme) MERPPGLRPGAGGPWEMRERLGTGGFGNVCLYQHRELDLKIAIKSCRLELSTKNRERWCHEIQIMKKLNHANVVKACDVPEELNILIHDVPLLAMEYCSGGDLRKLLNKPENCCGLKESQILSLLSDIGSGIRYLHENKIIHRDLKPENIVLQDVGGKIIHKIIDLGYAKDVDQGSLCTSFVGTLQYLAPELFENKPYTATVDYWSFGTMVFECIAGYRPFLHHLQPFTWHEKIKKKDPKCIFACEEMSGEVRFSSHLPQPNSLCSLVVEPMENWLQLMLNWDPQQRGGPVDLTLKQPRCFVLMDHILNLKIVHILNMTSAKIISFLLPPDESLHSLQSRIERETGINTGSQELLSETGISLDPRKPASQCVLDGVRGCDSYMVYLFDKSKTVYEGPFASRSLSDCVNYIVQDSKIQLPIIQLRKVWAEAVHYVSGLKEDYSRLFQGQRAAMLSLLRYNANLTKMKNTLISASQQLKAKLEFFHKSIQLDLERYSEQMTYGISSEKMLKAWKEMEEKAIHYAEVGVIGYLEDQIMSLHAEIMELQKSPYGRRQGDLMESLEQRAIDLYKQLKHRPSDHSYSDSTEMVKIIVHTVQSQDRVLKELFGHLSKLLGCKQKIIDLLPKVEVALSNIKEADNTVMFMQGKRQKEIWHLLKIACTQSSARSLVGSSLEGAVTPQTSAWLPPTSAEHDHSLSCVVTPQDGETSAQMIEENLNCLGHLSTIIHEANEEQGNSMMNLDWSWLTE | 2432 cpm | 2.83 | 6889 cpm
10 | 7260 cpm | 13100 cpm | GRK7 (enzyme) MVDMGALDNLIANTAYLQARKPSDCDSKELQRRRRSLALPGLQGCAELRQKLSLNFHSLCEQQPIGRRLFRDFLATVPTFRKAATFLEDVQNWELAEEGPTKDSALQGLVATCASAPAPGNPQPFLSQAVATKCQAATTEEERVAAVTLAKAEAMAFLQEQPFKDFVTSAFYDKFLQWKLFEMQPVSDKYFTEFRVLGKGGFGEVCAVQVKNTGKMYACKKLDKKRLKKKGGEKMALLEKEILEKVSSPFIVSLAYAFESKTHLCLVMSLMNGGDLKFHIYNVGTRGLDMSRVIFYSAQIACGMLHLHELGIVYRDMKPENVLLDDLGNCRLSDLGLAVEMKGGKPITQRAGTNGYMAPEILMEKVSYSYPVDWFAMGCSIYEMVAGRTPFKDYKEKVSKEDLKQRTLQDEVKFQHDNFTEEAKDICRLFLAKKPEQRLGSREKSDDPRKHHFFKTINFPRLEAGLIEPPFVPDPSVVYAKDIAEIDDFSEVRGVEFDDKDKQFFKNFATGAVPIAWQEEIIETGLFEELNDPNRPTGCEEGNSSKSGVCLLL | 7263 cpm | 1.81 | 13124 cpm
11 | 7440 cpm | 50400 cpm | IRAK4 (enzyme) MNKPITPSTYVRCLNVGLIRKLSDFIDPQEGWKKLAVAIKKPSGDDRYNQFHIRRFEALLQTGKSPTSELLFDWGTTNCTVGDLVDLLIQNEFFAPASLLLPDAVPKTANTLPSKEAITVQQKQMPFCDKDRTLMTPVQNLEQSYMPPDSSSPENKSLEVSDTRFHSFSFYELKNVTNNFDERPISVGGNKMGEGGFGVVYKGYVNNTTVAVKKLAAMVDITTEELKQQFDQEIKVMAKCQHENLVELLGFSSDGDDLCLVYVYMPNGSLLDRLSCLDGTPPLSWHMRCKIAQGAANGINFLHENHHIHRDIKSANILLDEAFTAKISDFGLARASEKFAQTVMTSRIVGTTAYMAPEALRGEITPKSDIYSFGVVLLEIITGLPAVDEHREPQLLLDIKEEIEDEEKTIEDYIDKKMNDADSTSVEAMYSVASQCLHEKKNKRPDIKKVQQLLQEMTAS | 7435 cpm | 6.77 | 50353 cpm
12 | 8700 cpm | 162000 cpm | NEK2 (enzyme) MPSRAEDYEVLYTIGTGSYGRCQKIRRKSDGKILVWKELDYGSMTEAEKQMLVSEVNLLRELKHPNIVRYYDRIIDRTNTTLYIVMEYCEGGDLASVITKGTKERQYLDEEFVLRVMTQLTLALKECHRRSDGGHTVLHRDLKPANVFLDGKQNVKLGDFGLARILNHDTSFAKTFVGTPYYMSPEQMNRMSYNEKSDIWSLGCLLYELCALMPPFTAFSQKELAGKIREGKFRRIPYRYSDELNEIITRMLNLKDYHRPSVEEILENPLIADLVADEQRRNLERRGRQLGEPEKSQDSSPVLSELKLKEIQLQERERALKAREERLEQKEQELCVRERLAEDKLARAENLLKNYSLLKERKFLSLASNPELLNLPSSVIKKKVHFSGESKENIMRSENSESQLTSKSKCKDLKKRLHAAQLRAQALSDIEKNYQLKSRQILGMR | 8702 cpm | 18.65 | 162331 cpm
13 | 11300 cpm | 24900 cpm | MEKK1 (enzyme) NQKCKEKMEAEEEEALAIAMAMSASQDALPIVPQLQVENGEDIIIIQQDTPETLPGHTKAKQPYREDTEWLKGQQIGLGAFSSCYQAQDVGTGTLMAVKQVTYVRNTSSEQEEVVEALREEIRMMSHLNHPNIIRMLGATCEKSNYNLFIEWMAGGSVAHLLSKYGAFKESVVINYTEQLLRGLSYLHENQIIHRDVKGANLLIDSTGQRLRIADFGAAARLASKGTGAGEFQGQLLGTIAFMAPEVLRGQQYGRSCDVWSVGCAIIEMACAKPPWNAEKHSNHLALIFKIASATTAPSIPSHLSPGLRDVALRCLELQPQDRPPSRELLKHPVFRTTW | 11316 cpm | 2.20 | 24866 cpm

— patent publication US20180085432A1, “STING (Stimulator of Interferon Genes), A Regulator of Innate Immune Responses” (University of Miami, priority 2008, published 2018)
